Data set [1] concerns the target T1, CPSF-160;WDR33 (1-572);CPSF-30 (human;human;human, UniProt Q10570;Q9C0J8;O95639-2 1-1443;1-572;1-244, ||). Kind of data set: cryo-EM structure.
The target of data set [2] is CPSF-160;WDR33 (1-572);MBP-CPSF-30(33-170) (human;human;human, UniProt Q10570;Q9C0J8;O95639-2 1-1443;1-572;33-170, ||). Kind of data set: EMSA.
For data set [3], the target named is T1, CPSF-160;WDR33 (1-572);CPSF-30. Nature of the data set: EMSA. In general terms: In EMSA bound probe runs differently from free probe, usually more slowly.
Data set [4] addresses CPSF-160–WDR33 binary complex (human, UniProt Q10570 1-1443; Q9C0J8 1-572). Kind of data set: cryo-EM structure.
For data set [5], the target named is T2, N-terminal region of human WDR33 (residues 1-572) (human, UniProt Q9C0J8 1-572).
T2 sequence (looked up): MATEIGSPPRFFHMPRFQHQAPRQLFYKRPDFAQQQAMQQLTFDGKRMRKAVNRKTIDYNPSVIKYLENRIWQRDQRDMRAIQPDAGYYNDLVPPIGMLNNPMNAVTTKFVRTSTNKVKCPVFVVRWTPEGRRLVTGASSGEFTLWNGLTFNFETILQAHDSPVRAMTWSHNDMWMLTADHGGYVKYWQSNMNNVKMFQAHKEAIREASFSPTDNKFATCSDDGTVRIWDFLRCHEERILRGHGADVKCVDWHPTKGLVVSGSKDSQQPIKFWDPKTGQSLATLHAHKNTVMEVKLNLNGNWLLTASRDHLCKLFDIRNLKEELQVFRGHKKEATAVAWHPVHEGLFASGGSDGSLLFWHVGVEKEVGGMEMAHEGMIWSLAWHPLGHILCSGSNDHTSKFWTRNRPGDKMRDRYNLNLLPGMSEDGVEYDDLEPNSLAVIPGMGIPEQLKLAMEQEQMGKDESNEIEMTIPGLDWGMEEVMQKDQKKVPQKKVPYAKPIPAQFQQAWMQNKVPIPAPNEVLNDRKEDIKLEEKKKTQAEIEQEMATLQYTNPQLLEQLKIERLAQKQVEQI
Kind of data set: cryo-EM structure.

T1 sequence (Q10570 whole entry, one chain of several): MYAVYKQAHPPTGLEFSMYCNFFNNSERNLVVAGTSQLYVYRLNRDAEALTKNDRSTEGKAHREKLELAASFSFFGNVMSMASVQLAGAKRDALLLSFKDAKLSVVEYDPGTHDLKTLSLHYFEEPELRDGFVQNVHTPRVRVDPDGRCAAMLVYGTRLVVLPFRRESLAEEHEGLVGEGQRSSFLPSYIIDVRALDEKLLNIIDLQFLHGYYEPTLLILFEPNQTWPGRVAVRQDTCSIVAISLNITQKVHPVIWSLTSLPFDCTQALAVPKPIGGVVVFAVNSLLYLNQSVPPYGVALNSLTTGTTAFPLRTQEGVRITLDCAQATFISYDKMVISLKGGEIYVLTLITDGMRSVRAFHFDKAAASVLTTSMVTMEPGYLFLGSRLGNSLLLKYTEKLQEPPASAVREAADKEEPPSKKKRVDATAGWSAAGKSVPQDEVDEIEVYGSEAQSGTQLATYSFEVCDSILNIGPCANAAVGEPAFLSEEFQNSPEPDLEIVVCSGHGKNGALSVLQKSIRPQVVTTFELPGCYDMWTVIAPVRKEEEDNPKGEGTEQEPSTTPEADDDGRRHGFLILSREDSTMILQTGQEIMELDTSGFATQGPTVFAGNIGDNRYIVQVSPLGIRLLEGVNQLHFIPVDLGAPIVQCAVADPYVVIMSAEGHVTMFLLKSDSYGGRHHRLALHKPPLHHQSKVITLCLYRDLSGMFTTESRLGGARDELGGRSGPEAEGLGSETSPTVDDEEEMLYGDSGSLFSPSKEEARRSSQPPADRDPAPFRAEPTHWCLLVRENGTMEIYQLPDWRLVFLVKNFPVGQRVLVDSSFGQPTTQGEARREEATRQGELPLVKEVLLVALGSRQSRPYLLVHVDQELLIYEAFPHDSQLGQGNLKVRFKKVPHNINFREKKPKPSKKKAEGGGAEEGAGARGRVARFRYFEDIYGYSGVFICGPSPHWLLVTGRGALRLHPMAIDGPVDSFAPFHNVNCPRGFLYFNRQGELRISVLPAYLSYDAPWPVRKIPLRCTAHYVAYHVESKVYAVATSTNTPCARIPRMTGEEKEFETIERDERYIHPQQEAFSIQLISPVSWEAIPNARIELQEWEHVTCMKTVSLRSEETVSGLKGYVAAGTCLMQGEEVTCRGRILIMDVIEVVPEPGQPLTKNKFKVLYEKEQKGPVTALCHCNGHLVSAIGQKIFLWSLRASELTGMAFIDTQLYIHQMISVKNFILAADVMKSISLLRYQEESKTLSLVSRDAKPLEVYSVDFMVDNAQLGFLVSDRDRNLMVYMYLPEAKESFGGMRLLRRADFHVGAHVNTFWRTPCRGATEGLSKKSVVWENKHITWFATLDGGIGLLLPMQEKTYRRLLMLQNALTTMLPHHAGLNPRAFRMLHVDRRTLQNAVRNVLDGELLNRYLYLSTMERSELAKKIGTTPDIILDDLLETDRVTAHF
CPSF-160;WDR33 (1-572);MBP-CPSF-30(33-170), sequence (Q10570 whole entry, chain 1 of 2, one chain of several): as the sequence (Q10570 whole entry, one chain of several) above
CPSF-160–WDR33 binary complex, sequence (Q10570 whole entry, the tested form may be a part, one chain of several): as the sequence (Q10570 whole entry, one chain of several) above

B1: 17-mer PAS RNA, unlabeled (EM) (ssRNA)
RNA: AACCUCCAAUAAACAAC
On to B1, for which the binding result in data set [1] is on record as “binds”.

B2: 17-mer PAS RNA (AAUAAA) (ssRNA)
RNA: AACCUCCAAUAAACAAC
For the molecule B2, the binding result in data set [2] and in data set [3] was “binds” in each case.

B3: full-length human CPSF-30 (isoform 2), MBP removed by TEV protease (natural protein, UniProt O95639-2 1-244, looked up)
chain: MQEIIASVDHIKFDLEIAVEQQLGAQPLPFPGMDKSGAAVCEFFLKAACGKGGMCPFRHISGEKTVVCKHWLRGLCKKGDQCEFLHEYDMTKMPECYFYSKFGECSNKECPFLHIDPESKIKDCPWYDRGFCKHGPLCRHRHTRRVICVNYLVGFCPEGPSCKFMHPRFELPMGTTEQPPLPQQTQPPAKQRTPQVIGVMQSQNSSAGNRGPRPLEQVTCYKCGEKGHYANRCTKGHLAFLSGQ
On to B3, for which the binding result in data set [4] and in data set [5] was “binds” each time.

(Values after article doi:10.1101/209809 (bioRxiv, 2017).)
